Assay results reported in the RNAGym collection of RNA variant scans (doi:10.7554/elife.90254).

B1: LINE1-full (parent)
chain: UACGUAGGUGGUUUUCCCCUGAUAGUGCUAAGGGGGCCUGGAAGUUUGGACUGGGCAGAGCUCAACACAGCGUGGCAAAGUGGCUGUGGCUAGACUGCCUCUCUGGAUUCCUCGUCACUCAGCAGGGCAUCUCUGAGAGAAAUGCC

Variants of: B1
Assay: self-cleavage, relative activity (ratio to wild type); higher = more cleavage; in vitro, sequencing; the parent is a self-cleaving ribozyme

| Variant | self-cleavage |
| --- | --- |
| U20A G41C | 0.73 |
| U20A G41U | 0.96 |
| U20A G49A | 1.37 |
| U20A G53A | 1.01 |
| U20A G58C | 0.08 |
| U20A G97C | 0.34 |
| U20A G114A | 1.4 |
| U20A G135U | 0.43 |
| U20A G137U | 0.85 |
| U20A G139A | 0.53 |
| U20A U23C | 0.83 |
| U20A U26A | 1.23 |
| U20A U29C | 1.09 |
| U20A U39A | 0.84 |
| U20A U45A | 1.05 |
| U20A U46A | 0.96 |
| U20A U46C | 1.49 |
| U20A U47A | 1.07 |
| U20A U47C | 1.31 |
| U20A U62A | 0.07 |
| U20A U81C | 0.84 |
| U20A U85A | 0.11 |
| U20A U85G | 0.1 |
| U20A U87A | 0.11 |

| Variant | self-cleavage |
| --- | --- |
| U20A U87C | 0.31 |
| U20A U87G | 0.21 |
| U20A U96A | 0.05 |
| U20A U100A | 0.78 |
| U20A U100C | 1.49 |
| U20A U104C | 0.93 |
| U20A U108C | 1.95 |
| U20A U109A | 0.88 |
| U20A U109C | 1.25 |
| U20A U112A | 1.82 |
| U20A U115A | 2.02 |
| U20A U132C | 1.49 |
| U20A U134C | 1.32 |
| U20A U143A | 1.43 |
| U20A U143C | 0.9 |
| U20C A24G | 1.11 |
| U20C A24U | 1.37 |
| U20C A30G | 1.39 |
| U20C A30U | 1.18 |
| U20C A42G | 1.25 |
| U20C A50U | 1.32 |
| U20C A57G | 1.19 |
| U20C A57U | 0.07 |
| U20C A59U | 0.82 |

| Variant | self-cleavage |
| --- | --- |
| U20C A65U | 0.14 |
| U20C A67G | 0.74 |
| U20C A67U | 0.15 |
| U20C A78G | 1.52 |
| U20C A92G | 0.08 |
| U20C A92U | 0.72 |
| U20C A94G | 0.39 |
| U20C A94U | 0.28 |
| U20C A117C | 1.64 |
| U20C A117U | 1.61 |
| U20C A121U | 1.44 |
| U20C A124G | 1.06 |
| U20C A124U | 1.17 |
| U20C A136U | 1.51 |
| U20C A138G | 1.55 |
| U20C A138U | 1.42 |
| U20C A140C | 2.05 |
| U20C A140U | 0.95 |
| U20C A141G | 1.54 |
| U20C A141U | 1.36 |
| U20C A142C | 1.88 |
| U20C A142G | 1.36 |
| U20C A142U | 2.2 |
| U20C C66U | 0 |

| Variant | self-cleavage |
| --- | --- |
| U20C C76U | 2.18 |
| U20C C84G | 0.09 |
| U20C C95A | 0.09 |
| U20C C95U | 0.27 |
| U20C C101U | 1.11 |
| U20C C110A | 0.41 |
| U20C C113U | 1.62 |
| U20C C116A | 1.5 |
| U20C C118G | 1.45 |
| U20C C118U | 1.2 |
| U20C C128U | 1.24 |
| U20C C131U | 1.18 |
| U20C C133U | 1.16 |
| U20C C146U | 1.27 |
| U20C G25A | 0.84 |
| U20C G32U | 0.94 |
| U20C G33A | 0.99 |
| U20C G33C | 0.74 |
| U20C G36A | 1.23 |
| U20C G40A | 1.1 |
| U20C G41A | 1.27 |
| U20C G44U | 1.06 |
| U20C G48U | 1.27 |
| U20C G49A | 1.54 |

| Variant | self-cleavage |
| --- | --- |
| U20C G54A | 0.65 |
| U20C G72U | 0.9 |
| U20C G75A | 1.16 |
| U20C G83A | 1 |
| U20C G86A | 0.11 |
| U20C G114A | 1.57 |
| U20C G126A | 1.8 |
| U20C G135A | 1.48 |
| U20C U23A | 1.81 |
| U20C U23C | 1.2 |
| U20C U39G | 0.8 |
| U20C U45A | 1.2 |
| U20C U45C | 1.19 |
| U20C U45G | 1.38 |
| U20C U46C | 1.5 |
| U20C U47C | 1.57 |
| U20C U52C | 1.76 |
| U20C U52G | 1.81 |
| U20C U62A | 0.11 |
| U20C U62G | 0.03 |
| U20C U73A | 1.56 |
| U20C U73C | 1.62 |
| U20C U81A | 1.44 |
| U20C U81C | 1.13 |

| Variant | self-cleavage |
| --- | --- |
| U20C U85A | 0.11 |
| U20C U85C | 0.38 |
| U20C U96A | 0.12 |
| U20C U104A | 1.17 |
| U20C U112A | 0.61 |
| U20C U112C | 1.4 |
| U20C U115C | 1.57 |
| U20C U119C | 1.35 |
| U20C U130A | 1.65 |
| U20C U130C | 1.77 |
| U20C U130G | 1.63 |
| U20C U132A | 1.63 |
| U20C U132C | 1.23 |
| U20C U143C | 1.29 |
| U20G A42G | 0.67 |
| U20G A64U | 0.71 |
| U20G A69U | 0 |
| U20G A78G | 1.1 |
| U20G A107G | 0.72 |
| U20G A129C | 1.95 |
| U20G A136G | 1.03 |
| U20G A140G | 0.96 |
| U20G A140U | 1.23 |
| U20G A141G | 0.87 |

| Variant | self-cleavage |
| --- | --- |
| U20G C61U | 0.09 |
| U20G G27A | 0.92 |
| U20G G74A | 1.29 |
| U20G G127A | 1.37 |
| U20G G135A | 0.98 |
| U20G U29A | 0.8 |
| U20G U29C | 1.36 |
| U20G U39C | 0.98 |
| U20G U46C | 2.3 |
| U20G U47A | 0.51 |
| U20G U47C | 0 |
| U20G U52A | 1.36 |
| U20G U73C | 1.39 |
| U20G U73G | 0.49 |
| U20G U85C | 0.18 |
| U20G U85G | 0.1 |
| U20G U96G | 0 |
| U20G U100C | 1.06 |
| U20G U102C | 1.73 |
| U20G U104A | 1.29 |
| U20G U109C | 0.93 |
| U20G U109G | 0.43 |
| U20G U115C | 1.95 |
